Patent publication US20160116473A1 (KOREA INSTITUTE OF RADIOLOGICAL AND MEDICAL SCIENCES, published 2016)

Target: T1, Signal transducer and activator of transcription 3 (STAT3) (human, UniProt P40763 2-770)
T1 construct: Endogenous protein in cell lysates (co-immunoprecipitation) or in fixed cells and tissues (PLA)
Assay: co-immunoprecipitation from Hep-2 and RR-Hep-2 cell lysates, immunoblot
Protocol: Cells were lysed with nonyl phenoxypolyethoxylethanol-40 (NP-40), and the lysates were then precipitated with a negative control mouse antibody (Santa Cruz Biotechnology Inc.) or a mouse monoclonal antibody against ERp57 (Santa Cruz Biotechnology Inc.). Afterwards, immune complexes were collected using protein G-Sepharose and washed 3 times, and SDS sample buffer was added thereto. The samples were size-fractionated by electrophoresis.

T1 sequence (P40763 2-770 limits assumed): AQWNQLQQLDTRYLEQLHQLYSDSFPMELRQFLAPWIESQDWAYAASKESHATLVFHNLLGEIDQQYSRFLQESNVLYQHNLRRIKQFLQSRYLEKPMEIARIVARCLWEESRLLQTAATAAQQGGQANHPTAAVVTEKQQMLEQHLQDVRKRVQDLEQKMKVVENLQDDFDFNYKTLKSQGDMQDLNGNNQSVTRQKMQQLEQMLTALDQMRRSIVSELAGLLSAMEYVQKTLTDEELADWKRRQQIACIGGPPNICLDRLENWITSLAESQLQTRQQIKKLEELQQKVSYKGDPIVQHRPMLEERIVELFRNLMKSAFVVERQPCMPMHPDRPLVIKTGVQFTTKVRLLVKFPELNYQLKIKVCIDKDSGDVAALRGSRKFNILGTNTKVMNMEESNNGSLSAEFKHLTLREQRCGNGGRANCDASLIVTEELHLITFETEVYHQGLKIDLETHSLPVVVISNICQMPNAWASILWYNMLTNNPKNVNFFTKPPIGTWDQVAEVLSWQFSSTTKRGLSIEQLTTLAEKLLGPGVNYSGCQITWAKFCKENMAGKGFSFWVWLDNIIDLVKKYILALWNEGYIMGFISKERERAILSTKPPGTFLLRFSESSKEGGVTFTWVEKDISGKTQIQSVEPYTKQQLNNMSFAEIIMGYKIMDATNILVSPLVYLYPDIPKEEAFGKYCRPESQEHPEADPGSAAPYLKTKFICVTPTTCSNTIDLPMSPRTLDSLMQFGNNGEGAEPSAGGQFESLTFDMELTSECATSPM

B1: ERp57 (enzyme, human, UniProt P30101 25-505, looked up)
chain: SDVLELTDDNFESRISDTGSAGLMLVEFFAPWCGHCKRLAPEYEAAATRLKGIVPLAKVDCTANTNTCNKYGVSGYPTLKIFRDGEEAGAYDGPRTADGIVSHLKKQAGPASVPLRTEEEFKKFISDKDASIVGFFDDSFSEAHSEFLKAASNLRDNYRFAHTNVESLVNEYDDNGEGIILFRPSHLTNKFEDKTVAYTEQKMTSGKIKKFIQENIFGICPHMTEDNKDLIQGKDLLIAYYDVDYEKNAKGSNYWRNRVMMVAKKFLDAGHKLNFAVASRKTFSHELSDFGLESTAGEIPVVAIRTAKGEKFVMQEEFSRDGKALERFLQDYFDGNLKRYLKSEPIPESNDGPVKVVVAENFDEIVNNENKDVLIEFYAPWCGHCKNLEPKYKELGEKLSKDPNIVIAKMDATANDVPSPYEVRGFPTIYFSPANKKLNPKKYEGGRELSDFISYLQREATNPPVIQEEKPKKKKKAQEDL
notes: Endogenous protein in cell lysates (co-immunoprecipitation) or in fixed cells and tissues (PLA); also called protein disulfide isomerase family A member 3; PDIA3
Q: Does B1 bind?
A: binds
